The results in this text go back to PMC3760248.

Experiment in all cases: ITC
(In general: In ITC the heat of successive injections is recorded.)

The target in one series is T1, MepR(F27L/F104A) (Staphylococcus aureus, UniProt Q5Y812 1-139, F27L;F104A).
T1 sequence: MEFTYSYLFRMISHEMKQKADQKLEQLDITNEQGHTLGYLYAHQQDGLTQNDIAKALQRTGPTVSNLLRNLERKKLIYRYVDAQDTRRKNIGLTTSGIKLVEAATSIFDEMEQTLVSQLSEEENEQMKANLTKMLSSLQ

In the next series the target is T2, MepR(A103S) (Staphylococcus aureus, UniProt Q5Y812 1-139, A103S).
T2 sequence: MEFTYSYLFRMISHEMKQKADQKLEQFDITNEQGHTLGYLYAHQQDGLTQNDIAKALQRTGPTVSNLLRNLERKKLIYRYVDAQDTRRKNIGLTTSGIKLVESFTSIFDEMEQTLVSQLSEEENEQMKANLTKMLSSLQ

A further series addresses T3, MepR WT (Staphylococcus aureus, UniProt Q5Y812 1-139).
T3 sequence: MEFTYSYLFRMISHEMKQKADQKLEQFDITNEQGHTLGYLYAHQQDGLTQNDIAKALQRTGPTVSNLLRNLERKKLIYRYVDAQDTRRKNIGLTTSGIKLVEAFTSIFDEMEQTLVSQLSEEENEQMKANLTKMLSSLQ

The next series has as its target T4, MepR(Q18A) (Staphylococcus aureus, UniProt Q5Y812 1-139, Q18A).
T4 sequence: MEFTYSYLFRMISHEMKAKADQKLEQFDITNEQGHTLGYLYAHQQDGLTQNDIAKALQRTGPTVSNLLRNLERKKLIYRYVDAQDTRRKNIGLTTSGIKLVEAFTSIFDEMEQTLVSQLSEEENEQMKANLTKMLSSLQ

B1: mepR operator, palindromic 26-mer (dsDNA)
DNA 1: TATTTAGTTAGATATCTAACTAAATA
DNA 2: TATTTAGTTAGATATCTAACTAAATA
Consider B1, for which the Kd (in general, the constant that tells how readily two partners part at equilibrium) stood at 32.3 nM with MepR(F27L/F104A), 42.6 nM with MepR(A103S), 36.6 nM with MepR WT and 34.1 nM with MepR(Q18A).
